# In the supplement of paper PMC9112550, “Optimization of the antimicrobial peptide Bac7 by deep mutational scanning” (BMC Biology, 2022):
# Tested on: Escherichia coli TOP10
# Test: shrunken log2 fold change of peptide-encoding DNA abundance (4.5 h post-induction vs induction); higher = less antimicrobial activity (less host growth inhibition)
# Settings: time post-induction: 4.5 h; library: site-saturation at positions 5, 18, 19, 20
# 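Also: peptides expressed intracellularly from a pBAD plasmid library in pooled LB shake-flask culture, induced with 0.3% L-arabinose, DNA abundance read by NGS, three biological replicates, DESeq2 with apeglm shrinkage.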
row,Sequence,shrunken log2 fold change
1,RRIRFRPPRLPRPRPRPEGDPRP,0.0402
2,RRIRWRPPRLPRPRPRPGAVPRP,0.745
3,RRIRERPPRLPRPRPRPRMSPRP,-0.254
4,RRIRRRPPRLPRPRPRPVQKPRP,0.223
5,RRIRQRPPRLPRPRPRPIWPPRP,-0.0155
6,RRIRLRPPRLPRPRPRPSLMPRP,0.126
7,RRIRMRPPRLPRPRPRPPVSPRP,1.27
8,RRIRDRPPRLPRPRPRPLKFPRP,0.0649
9,RRIRARPPRLPRPRPRPECYPRP,0.361
10,RRIRERPPRLPRPRPRPAYEPRP,-0.00975
11,RRIRRRPPRLPRPRPRPTMFPRP,0.0275
12,RRIRPRPPRLPRPRPRPEAQPRP,0.904
13,RRIRHRPPRLPRPRPRPGSHPRP,-0.226
14,RRIRDRPPRLPRPRPRPILNPRP,-0.184
15,RRIRGRPPRLPRPRPRPVEPPRP,0.79
16,RRIRMRPPRLPRPRPRPVPPPRP,0.901
17,RRIRTRPPRLPRPRPRPTQFPRP,0.0832
18,RRIRIRPPRLPRPRPRPCCSPRP,-1.1
19,RRIRHRPPRLPRPRPRPQRNPRP,-0.223
20,RRIRSRPPRLPRPRPRPWLEPRP,-0.0707
21,RRIRERPPRLPRPRPRPHCKPRP,-1.07
22,RRIRQRPPRLPRPRPRPYIMPRP,-1.64

row,Sequence,shrunken log2 fold change
1,RRIRFRPPRLPRPRPRPPQKPRP,0.719
2,RRIRARPPRLPRPRPRPWWIPRP,-0.0901
3,RRIRWRPPRLPRPRPRPKSQPRP,0.263
4,RRIRCRPPRLPRPRPRPAERPRP,-0.109
5,RRIRFRPPRLPRPRPRPKPLPRP,0.433
6,RRIRGRPPRLPRPRPRPFIDPRP,0.585
7,RRIRMRPPRLPRPRPRPVGMPRP,0.366
8,RRIRNRPPRLPRPRPRPQSWPRP,-0.0543
9,RRIRFRPPRLPRPRPRPQDEPRP,-0.0187
10,RRIRARPPRLPRPRPRPIHEPRP,-0.0242
11,RRIRMRPPRLPRPRPRPLDEPRP,0.0492
12,RRIRVRPPRLPRPRPRPYNKPRP,-0.707
13,RRIRDRPPRLPRPRPRPSGYPRP,0.0153
14,RRIRRRPPRLPRPRPRPHNPPRP,-0.0181
15,RRIRVRPPRLPRPRPRPGAEPRP,0.271
16,RRIRYRPPRLPRPRPRPARTPRP,-0.298
17,RRIRDRPPRLPRPRPRPASHPRP,0.0378
18,RRIRPRPPRLPRPRPRPVCLPRP,0.081
19,RRIRERPPRLPRPRPRPMNMPRP,-0.176
20,RRIRHRPPRLPRPRPRPSDKPRP,-0.355
21,RRIRRRPPRLPRPRPRPTVGPRP,0.0232
22,RRIRDRPPRLPRPRPRPITSPRP,-0.00293

row,Sequence,shrunken log2 fold change
1,RRIRGRPPRLPRPRPRPLARPRP,0.91
2,RRIRNRPPRLPRPRPRPWLKPRP,-0.0113
3,RRIRARPPRLPRPRPRPSSLPRP,0.00294
4,RRIRTRPPRLPRPRPRPNGKPRP,-0.189
5,RRIRPRPPRLPRPRPRPVWEPRP,-0.126
6,RRIRCRPPRLPRPRPRPDSNPRP,-0.488
7,RRIRARPPRLPRPRPRPNVFPRP,0.258
8,RRIRCRPPRLPRPRPRPNCAPRP,0.00777
9,RRIRKRPPRLPRPRPRPTQKPRP,0.0634
10,RRIRCRPPRLPRPRPRPRDFPRP,0.0317
11,RRIRDRPPRLPRPRPRPTYAPRP,0.0176
12,RRIRDRPPRLPRPRPRPFKNPRP,0.11
13,RRIRERPPRLPRPRPRPPNQPRP,-0.118
14,RRIRSRPPRLPRPRPRPVSNPRP,-0.0276
15,RRIRQRPPRLPRPRPRPEDLPRP,0.125
16,RRIRNRPPRLPRPRPRPLQAPRP,-0.0119
17,RRIRYRPPRLPRPRPRPPHVPRP,-0.142
18,RRIRPRPPRLPRPRPRPAYEPRP,0.0834
19,RRIRCRPPRLPRPRPRPEQFPRP,0.0372
20,RRIRKRPPRLPRPRPRPTQLPRP,0.65
21,RRIRSRPPRLPRPRPRPKAWPRP,0.148
22,RRIRDRPPRLPRPRPRPHMTPRP,-0.0927

row,Sequence,shrunken log2 fold change
1,RRIRTRPPRLPRPRPRPDGFPRP,-0.0487
2,RRIRNRPPRLPRPRPRPVWLPRP,0.0895
3,RRIRCRPPRLPRPRPRPWFNPRP,-1.12
4,RRIRTRPPRLPRPRPRPMWGPRP,-0.00569
5,RRIRWRPPRLPRPRPRPSIAPRP,0.0837
6,RRIRTRPPRLPRPRPRPLHWPRP,0.111
7,RRIRPRPPRLPRPRPRPALCPRP,0.371
8,RRIRSRPPRLPRPRPRPYGDPRP,-0.115
9,RRIRGRPPRLPRPRPRPMIVPRP,0.554
10,RRIRIRPPRLPRPRPRPTARPRP,0.0575
11,RRIRMRPPRLPRPRPRPVIKPRP,-0.0254
12,RRIRVRPPRLPRPRPRPWADPRP,-0.0322
13,RRIRNRPPRLPRPRPRPMTHPRP,-0.405
14,RRIRERPPRLPRPRPRPLKWPRP,0.159
15,RRIRPRPPRLPRPRPRPLMGPRP,-0.0395
16,RRIRLRPPRLPRPRPRPGIMPRP,-0.219
17,RRIRGRPPRLPRPRPRPWELPRP,0.136
18,RRIRTRPPRLPRPRPRPPATPRP,0.213
19,RRIRLRPPRLPRPRPRPYHWPRP,-0.188
20,RRIRTRPPRLPRPRPRPYLFPRP,-0.71
21,RRIRKRPPRLPRPRPRPWNHPRP,-0.172
22,RRIRHRPPRLPRPRPRPQERPRP,-0.0325

row,Sequence,shrunken log2 fold change
1,RRIRLRPPRLPRPRPRPCRPPRP,-0.0863
2,RRIRQRPPRLPRPRPRPCDYPRP,0.07
3,RRIRVRPPRLPRPRPRPFDFPRP,-0.266
4,RRIRVRPPRLPRPRPRPMPMPRP,0.0529
5,RRIRNRPPRLPRPRPRPYDSPRP,-0.284
6,RRIRERPPRLPRPRPRPIDGPRP,0.0442
7,RRIRMRPPRLPRPRPRPLKGPRP,-0.0357
8,RRIRRRPPRLPRPRPRPTCGPRP,0.506
9,RRIRIRPPRLPRPRPRPEEPPRP,-0.0444
10,RRIRMRPPRLPRPRPRPTYEPRP,-0.16
11,RRIRERPPRLPRPRPRPFCPPRP,-0.149
12,RRIRRRPPRLPRPRPRPFNFPRP,-0.473
13,RRIRKRPPRLPRPRPRPQHEPRP,0.198
14,RRIRDRPPRLPRPRPRPWKMPRP,0.0664
15,RRIRCRPPRLPRPRPRPCGSPRP,-0.0815
16,RRIRYRPPRLPRPRPRPLHRPRP,-0.116
17,RRIRERPPRLPRPRPRPPDHPRP,-0.0455
18,RRIRIRPPRLPRPRPRPTYVPRP,-0.0344
19,RRIRKRPPRLPRPRPRPWKNPRP,-0.00973
20,RRIRNRPPRLPRPRPRPHVLPRP,-0.245
21,RRIRQRPPRLPRPRPRPSRKPRP,0.111
